Source: article PMC10450692
One block for each substance: values may come before it.

What was measured:
Assay in all cases: native MS; native nanoESI ion mobility MS (Synapt G2-S), 20 μM peptide in 200 mM ammonium acetate pH 6.8, positive ion mode, 25 °C source temperature; self-association of SEC-purified monomer
Aβ(1–16) = target: Aβ(1–16)
Aβ(1–28) = target: Aβ(1–28)
[1] = target: Aβ(1–40)CC (A21C and A30C double mutant with an intramolecular disulfide bond)
[2] = target: amyloid-β peptide Aβ(1–40)
scrambled Aβ(1–40) = target: scrambled Aβ(1–40)
Aβ(1–38) = target: Aβ(1–38)

Substance: Aβ(1–28) (peptide)
stoichiometry N (Aβ(1–28)): 6

Substance: amyloid-β peptide Aβ(1–40)
stoichiometry N [2]: > 8

Substance: Aβ(1–38) (peptide)
stoichiometry N (Aβ(1–38)): > 6

Further lines, results first:

stoichiometry N (Aβ(1–16)): 2
Substance: Aβ(1–16) (peptide)

stoichiometry N [1]: > 10
Substance: Aβ(1–40)CC (A21C and A30C double mutant with an intramolecular disulfide bond) (peptide)

stoichiometry N (scrambled Aβ(1–40)): 2
Substance: scrambled Aβ(1–40) (peptide)
